Results from patent publication US20010041790A1.

How the values were obtained:
[1] = biological target: 35S-labeled hamster PrPsen, glycophosphoinositol-negative form (35S-HaPrPsen) (Syrian golden hamster) (UniProt P04273); experiment: cell-based or functional assay
murine PrPsen (mouse) = murine PrPsen (mouse) (UniProt P04925); experiment: cell-based or functional assay

Substance | IC50 of the conversion reaction [1] [µM] | also measured
hamster PrP synthetic peptide P117-141 | 80 | –
Mo3F4P109-141 (peptide) | – | IC50 of murine PrP conversion (murine PrPsen (mouse)): 50 µM
hamster PrP synthetic peptide P119-128 | 550 | –
hamster PrP synthetic peptide P119-136 | < 100 | –
hamster PrP synthetic peptide P115-141 | 40 | –
hamster PrP synthetic peptide P119-141 | 120 | –
MoP109-141 (peptide) | – | IC50 of murine PrP conversion (murine PrPsen (mouse)): 50 µM; IC50 of the hamster PrP conversion reaction [1]: 70 µM
hamster PrP synthetic peptide P113-141 | – | IC50 of the in vitro conversion [1]: 40 µM
